From paper PMC8239462 (2021) come the findings set out here.

In general, Kd refers to the concentration at which binding is half-saturated.

Test [1] concerns the target LRP1 Cluster IV (commercial) (Homo sapiens). Put plainly: SPR. (SPR reads the build-up and loss of mass on a sensor chip optically.)
The target of test [2] is T1, LRP1 CR.7 singlet (human, UniProt Q07954 1013-1053). Put plainly: SPR; CR.7 expressed with RAP (RAP+).
The target in test [3] is T2, vLDLR CR cluster (8 CRs), recombinant, secreted from Sf9 cells (human, UniProt P98155 28-355). Put plainly: SPR; vLDLR cluster expressed with RAP (RAP+).
Test [4] addresses T1, LRP1 CR.7 singlet. Put plainly: SPR; CR.7 expressed without RAP (RAP-).
In test [5] the target is T2, vLDLR CR cluster (8 CRs), recombinant, …. The experiment in a line: SPR; vLDLR cluster expressed without RAP (RAP-).

T1 sequence (Q07954 1013-1053): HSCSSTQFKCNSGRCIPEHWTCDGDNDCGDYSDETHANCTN
Sequence of LRP1 Cluster IV (commercial) (Homo sapiens) (chain, as listed by the source): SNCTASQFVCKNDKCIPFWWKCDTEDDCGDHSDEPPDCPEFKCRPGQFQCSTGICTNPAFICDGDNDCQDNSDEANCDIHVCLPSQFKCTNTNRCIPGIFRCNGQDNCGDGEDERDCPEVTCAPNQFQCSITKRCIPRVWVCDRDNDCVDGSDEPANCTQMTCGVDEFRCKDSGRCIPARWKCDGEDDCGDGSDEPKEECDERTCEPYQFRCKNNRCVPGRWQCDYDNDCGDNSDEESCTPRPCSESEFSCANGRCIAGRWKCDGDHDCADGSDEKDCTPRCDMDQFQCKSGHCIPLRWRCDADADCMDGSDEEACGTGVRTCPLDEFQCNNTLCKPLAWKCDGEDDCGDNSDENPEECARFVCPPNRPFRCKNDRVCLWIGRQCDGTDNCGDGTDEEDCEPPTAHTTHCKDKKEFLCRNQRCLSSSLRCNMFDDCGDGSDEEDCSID

B1: RAP (commercial; R&D, 4296-LR) (natural protein)
chain: YSREKNQPKPSPKRESGEEFRMEKLNQLWEKAQRLHLPPVRLAELHADLKIQERDELAWKKLKLDGLDEDGEKEARLIRNLNVILAKYGLDGKKDARQVTSNSLSGTQEDGLDDPRLEKLWHKAKTSGKFSGEELDKLWREFLHHKEKVHEYNVLLETLSRTEEIHENVISPSDLSDIKGSVLHSRHTELKEKLRSINQGLDRLRRVSHQGYSTEAEFEEPRVIDLWDLAQSANLTDKELEAFREELKHFEAKIEKHNHYQKQLEIAHEKLRHAESVGDGERVSRSREKHALLEGRTKELGYTVKKHLQDLSGRISRARHNEL
modifications: Limits by convention: cluster IV = CR.21-31 (LDL-receptor class A repeats 21-31); vendor limits are not printed. Likely supplied as an Fc chimera, as for commercial cluster II (Fc omitted; may be a dimer). Ca2+-bound, three disulfides per CR.
B1 displayed a Kd in test [1] of around 2.5 nM.

B2: RAP (commercial; R&D, 4296-LR) (natural protein)
chain: B1 chain
On to B2, for which the Kd was 37.6 nM in the test with LRP1 CR.7 singlet [2], around 1.6 nM in test [3], 67.9 nM with LRP1 CR.7 singlet [4] and around 1.7 nM in test [5].
